Results on two molecules are retold here after patent US20020151463A1 (UT BATTELLE, published 2002).

For one assay, the target named is human MSH receptor (human, UniProt Q01726 1-317). The experiment in a line: cell-based or functional assay.
The target in assay [1] is T1, murine MSH receptor (mouse, UniProt Q01727 1-315).
T1 construct: whole, on cells; Stably transfected in 293 cells for the adenylyl cyclase assays; also called mMSH-R; mouse MSH-R
Briefly: competition binding against 125I-ACTH1-39 on Cloudman M-3 melanoma cells, single-site model.
Procedure: To investigate this further, the ability of the protein to compete with another melanocortin peptide for binding to the mouse MSH-R was examined. […] Competition binding studies were performed with ¹²⁵I-labelled ACTH₁₋₃₉ and the M-3 subclone of the Cloudman murine melanoma cell line.

For assay [2], the target named is T1, murine MSH receptor. The experiment in a line: cell-based or functional assay.

For orientation: IC50 means the midpoint of a concentration-inhibition curve. What is called Ki is a dissociation constant, usually derived from enzyme kinetics or from competition with a known ligand.

T1 sequence (Q01727 whole entry): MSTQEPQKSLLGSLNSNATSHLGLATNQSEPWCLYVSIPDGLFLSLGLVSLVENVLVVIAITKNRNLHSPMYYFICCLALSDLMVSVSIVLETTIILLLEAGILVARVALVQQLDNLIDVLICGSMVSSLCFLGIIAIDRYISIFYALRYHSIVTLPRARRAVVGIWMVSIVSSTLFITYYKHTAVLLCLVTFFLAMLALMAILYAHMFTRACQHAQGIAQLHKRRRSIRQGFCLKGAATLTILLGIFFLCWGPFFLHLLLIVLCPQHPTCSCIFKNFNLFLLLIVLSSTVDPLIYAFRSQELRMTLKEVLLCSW
Chain of human MSH receptor (Q01726 whole entry): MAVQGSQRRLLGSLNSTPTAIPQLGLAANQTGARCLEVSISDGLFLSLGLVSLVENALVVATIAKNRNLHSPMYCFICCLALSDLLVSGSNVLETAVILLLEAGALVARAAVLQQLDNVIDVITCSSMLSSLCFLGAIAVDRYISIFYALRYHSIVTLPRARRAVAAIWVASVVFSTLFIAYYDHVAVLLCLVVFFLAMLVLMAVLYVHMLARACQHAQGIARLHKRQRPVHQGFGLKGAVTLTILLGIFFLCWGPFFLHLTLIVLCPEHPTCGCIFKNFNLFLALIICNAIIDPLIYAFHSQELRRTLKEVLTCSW

B1: recombinant human agouti protein (ligand)
chain: HLPPEEKLRDDRSLRSNSSVNLLDVPSVSIVALNKKSKQIGRKAAEKKRSSKKEASMKKVVRPRTPLSAPCVATRNSCKPPAPACCDPCASCQCRFFRSACSCRVLSLNC
Take B1: the “EC50 of the [Ca^2+]i dose response in the HEK-293 MC1R line” value with human MSH receptor is around 18 nM.

B2: recombinant murine agouti protein (ligand)
chain: HLALEETLGDDRSLRSNSSMNSLDFSSVSIVALNKKSKKISRKEAEKRKRSSKKKASMKKVARPPPPSPCVATRDSCKPPAPACCDPCASCQCRFFGSACTCRVLNPNC
notes: Full-length mouse agouti cDNA expressed by baculovirus in T. ni cells; also called mouse agouti; agouti polypeptide
In the assay with murine MSH receptor [1], B2 displayed an IC50 of 1.2 ng/mL and a Ki of 0.66 nM. Moreover, the “apparent Ki (antagonism of α-MSH-stimulated adenylyl cyclase, four independent studies)” value with murine MSH receptor [2] is 0.32 nM.
